{"source": "the nanobody polyreactivity screen of Harvey et al. (2022)"}
{"experiment": "yeast display, Sf9 membrane polyspecificity reagent, FACS + sequencing; frameworks hold sequencing errors", "method_in_brief": "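Genes from sorted yeast were amplified by colony PCR, read by MiSeq 2 × 250 sequencing and filtered on CDR length. These cells carried a synthetic nanobody library in Saccharomyces cerevisiae BJ5465 and were sorted by FACS into low and high (top ~1%) gates on anti-HA and streptavidin fluorescence. Polyreactivity is labelled according to the gate of origin.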"}
{"sequence": "QVQLVESGGGLVQAGGSLRLSCAASGRIFRYNAMGWYRQAPGKERELVATISKSGGSTYYADSVKGRFTISRDNANYTVYLQMNSLKPEDTAVYYCAASYHPWLADYGYWGQGTQVSVSS", "polyreactivity (PSR sort gate)": "low polyreactivity"}
{"sequence": "QVQLVESGGGLVQAGGSLRLSCAASGRIFRYNAMVWYRQAPGKERELVAAITWSGTSTYYADSLKGRFTLSRDNAKNTVYLHMNSLKPEDTAVYYCNADRVDRELFTFDYWGQGTQVTVSS", "polyreactivity (PSR sort gate)": "high polyreactivity"}
{"sequence": "QVQLVESGGGLVQAGGSLRLSCAASGRIFRYYAMGWYRPATGKERELVAGITRGGTTNYSDSVKGRFTISRDNAKNTVYLQMNSLKPEDTAVYYCAADTRRGIIGYDYWGQGTQVTVSS", "polyreactivity (PSR sort gate)": "high polyreactivity"}
{"sequence": "QVQLVESGGGLVQAGGSLRLSCAASGRIFRYYAMGWYRQAAGKERELVAAIRYRSGGTSYADSVKGRFTISRDNAKNTVYLQMNSLKPEDTAVYYCNADKRLRGHGYDYWGQGTQVTVSS", "polyreactivity (PSR sort gate)": "high polyreactivity"}
{"sequence": "QVQLVESGGGLVQAGGSLRLSCAASGRIFRYYAMGWYRQAPGKEREFVAAISSNTGTGTYYADSVKGRFTISRDNAKNTVYLQMNSLKPEDTAVYYCNAKYKYRGYYWGQGTQVTVSS", "polyreactivity (PSR sort gate)": "high polyreactivity"}
{"sequence": "QVQLVESGGGLVQAGGSLRLSCAASGRIFRYYAMGWYRQAPGKERELDAGITGRGGRTYYADSVKGRFTISRDNAKNTVYLQMNSLKPEDTAVYYCAATVSPSYDYWGQGTQVTVSS", "polyreactivity (PSR sort gate)": "high polyreactivity"}
{"sequence": "QVQLVESGGGLVQAGGSLRLSCAASGRIFRYYAMGWYRQAPGKERELVAAIDSVGSTYYADSVKGRFTISRDNAKNTVYLQMNSLKPEDTAVYYCNARVYTFPTRYDYWGQGTQVTVSS", "polyreactivity (PSR sort gate)": "high polyreactivity"}
{"sequence": "QVQLVESGGGLVQAGGSLRLSCAASGRIFRYYAMGWYRQAPGKERELVAAIRIRGGSTSYADSVKGRFTISRDNAKNTVYLQMNSLKPEDTAVYYCNKRDKVTYSYDYWGQGTQVTVSS", "polyreactivity (PSR sort gate)": "high polyreactivity"}
{"sequence": "QVQLVESGGGLVQAGGSLRLSCAASGRIFRYYAMGWYRQAPGKERELVAAISGNGGRTSYADSVKGRFTISRDTAKNTVYLQMNSLNPEDTAVYYCAKYPVQSDYLFDHWGQGTQVTVSS", "polyreactivity (PSR sort gate)": "high polyreactivity"}
{"sequence": "QVQLVESGGGLVQAGGSLRLSCAASGRIFRYYAMGWYRQAPGKERELVAAISTAGSTYYADSVMGRFTISRDNAKNTVYLQMNSLKPEDTAVYFCAARTYRSVYGPEYGYWGQGTQVTVSS", "polyreactivity (PSR sort gate)": "high polyreactivity"}
{"sequence": "QVQLVESGGGLVQAGGSLRLSCAASGRIFRYYAMGWYRQAPGKERELVAAITKNGGSTYYADSVKRRFTISRDNAKNTVYLQMNSLKPEDTAVYYCAAARLGNYDYWGQGTQVTVSS", "polyreactivity (PSR sort gate)": "high polyreactivity"}
{"sequence": "QVQLVESGGGLVQAGGSLRLSCAASGRIFRYYAMGWYRQAPGKERELVAAITRGGRTNYADSVKGRFTISRDNAKNTVYLQMNSLKQEDTAFYYCAARNVFQSVHVRGGYWGQGTQVTVSS", "polyreactivity (PSR sort gate)": "high polyreactivity"}
{"sequence": "QVQLVESGGGLVQAGGSLRLSCAASGRIFRYYAMGWYRQAPGKERELVAAITWRGSSTYYADSVKGRFTISRDNAKNTVYLQMNSLKPEDTAVYYCNKLRSPHGYIRPGYDYWGQGTQVTVSS", "polyreactivity (PSR sort gate)": "high polyreactivity"}
{"sequence": "QVQLVESGGGLVQAGGSLRLSCAASGRIFRYYAMGWYRQAPGKERELVARITNGAITNYADSVKGRFTISRDNAKNTVYLQMNSLKPEDTAVYYCAADPWYTLSVPSGYDYWGQGTQVTVSS", "polyreactivity (PSR sort gate)": "high polyreactivity"}
{"sequence": "QVQLVESGGGLVQAGGSLRLSCAASGRIFRYYAMGWYRQAPGKERELVASITRRGGSTYYADSVKGRFTISRDNAKNTVYLQMNSLKPEDTAVYYCVGDTYYNLGNYWGQGTQVTVSS", "polyreactivity (PSR sort gate)": "high polyreactivity"}
{"sequence": "QVQLVESGGGLVQAGGSLRLSCAASGRIFRYYAMGWYRQAPGKERELVATISSSGGSTYYADSVKGRFTISRDNAKNTVYLQMNSLKPEDTAVYYCAADWYGYRQFHGYYWGQGTQVTVSS", "polyreactivity (PSR sort gate)": "high polyreactivity"}
{"sequence": "QVQLVESGGGLVQAGGSLRLSCAASGRIFRYYAMGWYRQEPGKERELVAVITRGTSTKYADSVKGRFTISRDNAKITVYLQMNSLKPEDTAVYYCAADYWYANVGFDYWGQGTQVTVSS", "polyreactivity (PSR sort gate)": "high polyreactivity"}
{"sequence": "QVQLVESGGGLVQAGGSLRLSCAASGRIFRYYDMGWYRPAPGTERELVAAITSDGSTKYADSVKGRFTISRDNAKNTVYLQMNSLKPEDTAVYYCNAEVLPTWYSPQLDYWGQGTQVTVSS", "polyreactivity (PSR sort gate)": "low polyreactivity"}
{"sequence": "QVQLVESGGGLVQAGGSLRLSCAASGRIFRYYSMGWYRQAPGKERELVAAISRSGSTNYADSVKGRFTISRDNAKNTVYFQMNSLKPEDTAVYYCAADSNYLYFWRRYKRMDYWGQGTQVTVSS", "polyreactivity (PSR sort gate)": "high polyreactivity"}
{"sequence": "QVQLVESGGGLVQAGGSLRLSCAASGRIFRYYTMGWYRQAPGKEREFVAAITLSGGRTYYADSVKGRFTISRDNAKNTVYLQMNSLKPEDTAVYYCAAYDRITRYDYWGQGTQVTVSS", "polyreactivity (PSR sort gate)": "high polyreactivity"}
{"sequence": "QVQLVESGGGLVQAGGSLRLSCAASGRIFRYYTMGWYRQAPGKERELVATISWNGSNTYYADSVKGRFTISRDNAKNTVYLQMNSLKPEDTAVYYCAAGVLPGLYNGARLFDYWGHGTQVTVSS", "polyreactivity (PSR sort gate)": "low polyreactivity"}
{"sequence": "QVQLVESGGGLVQAGGSLRLSCAASGRIFSAYAMGWYRQAPGKEREFVAAITQSGGSTYYADSVKGRFTISRDNAKNTVYVQMNSLKPEDTAVYYCAAGDAYYTEALPFGEYDYWGQGTQVTVSS", "polyreactivity (PSR sort gate)": "low polyreactivity"}
{"sequence": "QVQLVESGGGLVQAGGSLRLSCAASGRIFSEYAMGGDRQAPGKERELVATITSGDSTIYADSVKGRFTISRDNAKNTVYVQMNSLKPDDTAVYYCNPDRFADYDYWGHGTQVTVSS", "polyreactivity (PSR sort gate)": "low polyreactivity"}
{"sequence": "QVQLVESGGGLVQAGGSLRLSCAASGRIFSFYTMGWYRQAPGKERELVAAITWSGGSTYYADSVKGRFTISRDNAKNTVYLQMNSLKPEDTAVYYCAADFYLGPTWYYYWGQGTQVTVSS", "polyreactivity (PSR sort gate)": "high polyreactivity"}
{"sequence": "QVQLVESGGGLVQAGGSLRLSCAASGRIFSGNAMGWYRQAPGKERELVAAISWGGGRTYYADSVKGRFTISRDNAKNTVYLQMNSLKPEDTAVFYCNTVRQRARFTKVDYWGQGTQVTVSS", "polyreactivity (PSR sort gate)": "high polyreactivity"}
{"sequence": "QVQLVESGGGLVQAGGSLRLSCAASGRIFSGNGMGWYRQATGKERELVASITWSGTSTYYADSVKGGFTISRDNAKNTVYLQMNSLKPEDTAVYYCNTRTSRRIWYSKSGKRYDYWGQGTQVTVSS", "polyreactivity (PSR sort gate)": "high polyreactivity"}
{"sequence": "QVQLVESGGGLVQAGGSLRLSCAASGRIFSGYALGWYRQAPGKERELVAAISQRGGSTTYADSVKGRFTISRDNAKNTVYLQMNSLKPEDTAVYYCAKRYTYPSGYDYWGQGTEVTVSS", "polyreactivity (PSR sort gate)": "low polyreactivity"}
{"sequence": "QVQLVESGGGLVQAGGSLRLSCAASGRIFSGYAMGCYRQAPGKERELVAAITSRSGSTYYADSVKGRFTISRDNAKKTVYLQMNSLKPEDTAVYYCAAEYVRFYWYTSDYWGQGTQVTVSS", "polyreactivity (PSR sort gate)": "low polyreactivity"}
{"sequence": "QVQLVESGGGLVQAGGSLRLSCAASGRIFSGYAMGSYRQAPGKERELVAAITSVGSTNYADSVKGLFTISRDNAKNTVYLQMNSLKPEDTAVFNCAAKRYRPKYEYYYWGLGTQVTVSS", "polyreactivity (PSR sort gate)": "high polyreactivity"}
{"sequence": "QVQLVESGGGLVQAGGSLRLSCAASGRIFSGYAMGWYRQAPGKERELVAAITSRSGSTYYADSVKGRFTISRDNAKNTVYFQMNSLKPEDTAVYYCAAEYVRFYWYTSDYWGQGTQVTVSS", "polyreactivity (PSR sort gate)": "low polyreactivity"}
{"sequence": "QVQLVESGGGLVQAGGSLRLSCAASGRIFSGYAMGWYRQAPGKERELVAAITSVGSTNYADSVKGRFTISRDNAKNTVYLQMNSLKPEDTAVYYCARYSYRGTNVRYDYWGQGTQVTVSS", "polyreactivity (PSR sort gate)": "high polyreactivity"}
{"sequence": "QVQLVESGGGLVQAGGSLRLSCAASGRIFSHNAMGWYRQAPGKERELVAAISRSGGRTYYADSVKGRFTISRYNAKNTVYVQMKSLKPEDTAVYYCAADYRLKKSPGYSGEDDYWGQGTQVTVSS", "polyreactivity (PSR sort gate)": "high polyreactivity"}
{"sequence": "QVQLVESGGGLVQAGGSLRLSCAASGRIFSHYAMGWYRQAPGKERELVAAITSDGSTNYADSVKGRFTISRDNAKNTVYLQMNSLKPEDTAVYYCADYDYWGQGTQVTVSS", "polyreactivity (PSR sort gate)": "low polyreactivity"}
{"sequence": "QVQLVESGGGLVQAGGSLRLSCAASGRIFSINVMGWYRHAPGKERELVAAISKRGGSTYYADSVKGRFTISRDNAKNTVYLQMNSLKPEDTAVYYCAARRHYTYGNGPSRGGQMDYWGQGTQVTVSS", "polyreactivity (PSR sort gate)": "high polyreactivity"}
{"sequence": "QVQLVESGGGLVQAGGSLRLSCAASGRIFSIYTMGWSRQAPGKERELVAAISASDGSTYYADSVKGRFTISRDNAKNTVYLQMNSLKPEDTAVYYCAIDTYPQKVTYGSFAYDYWGEGTQVTVSS", "polyreactivity (PSR sort gate)": "low polyreactivity"}
{"sequence": "QVQLVESGGGLVQAGGSLRLSCAASGRIFSKNAMGWCRQAPGKERELVAGITSNSGSTYYADSVKGRFTISRDNAKNTVYLQMNSLIPEDTAVYYCAARFPHRHYLLYTYDYWGQGTQVTVSS", "polyreactivity (PSR sort gate)": "low polyreactivity"}
{"sequence": "QVQLVESGGGLVQAGGSLRLSCAASGRIFSKNAMGWYRKAPGKERELVAAISWSGGSTYYADSVKGRFTISRDNAKNTVYLQMNSLKPEDTAVYYCAADSPRYGGYGYWGQGTQVTVSS", "polyreactivity (PSR sort gate)": "low polyreactivity"}
{"sequence": "QVQLVESGGGLVQAGGSLRLSCAASGRIFSKYAMGWYRQAPGKERELVASIRWRGDRTYYADSVKGRFTISRDNAKNTVYLQMNSLKPEDTAVYYCAVETLWQGSEYWVQGTQVTVSS", "polyreactivity (PSR sort gate)": "low polyreactivity"}
{"sequence": "QVQLVESGGGLVQAGGSLRLSCAASGRIFSLYAMGWYRQAPGKERELVAAITWSSGSTYYADSVKGRFTISRDNAKNTVYLQMNSLKPEDTAVYYCAARVFTLLGYSYEYWGQGTQVTVSS", "polyreactivity (PSR sort gate)": "low polyreactivity"}
{"sequence": "QVQLVESGGGLVQAGGSLRLSCAASGRIFSNNAMGWYRQAPGKERELVAAITNSGGSTYYADSVKGRFTISRDNAKNTVYLQMNSLKPEDTAVYYCAADHLSVQYDVYWTYYYWGQGTQVTVSS", "polyreactivity (PSR sort gate)": "low polyreactivity"}
{"sequence": "QVQLVESGGGLVQAGGSLRLSCAASGRIFSPNAMGWYRQAPGKERELVAAITRGGSTNYADSVKGRFTISRDNAKNTVYLQMNSLKPEDTAVYYCAAQLAKTIRGRGYNSWGQGTQVTVSS", "polyreactivity (PSR sort gate)": "low polyreactivity"}
